The source of these data is a protein production outcome set (Wang et al. 2014).

A short description of the data set: label from the status in PepcDB records.

For “MSTYDTAVLDDTLVSCLSQLIGAEHIDTLTLEGRFEITRIAAALSGRPGPAPRAILMSGLQGSGKTTLARALEAAGFRRLCPDEEMFRRYGHYGRDFPRGEFRVREAPVLKDIALELQELLTAGHEVVVDHGFWTREERAQWAMTVMEAGGKPVLIYLPVPHEVRWDRIRKRNEQSLVDANSIEFSEEDLLRHAGRFSPPTDDEPHIVYDGQPDSVLADIQLSRHFDALEHHHHHH”, the protein production entry is “failed”.

Take “MSVAAEVAQVAQSAIDDFNAAYGLCLDDDRLEQWPTLFVDDCLYQVIARENVDNGLPAAVMYCDSKGMLADRVVALRKANVFPEHFNRHLIGRAVITGVEGDQVSAEASYVVFQTRNDGETRIYNAGKYVDRFDLSGGTVRLKSRTCIYDTLRIATLLATPI”: the protein production result is recorded as “not failed”.

For “MSVAAGGPAGAAIPESRLMALGIIGGLGGIYASTVNPVIGPVFASLGAVCAIIWGADAIRRVASYGLGTGVPSIGYMSVSIGIVGVVAGLASVFTLPALAAPVVGLILAMILGVVVAVLGKKIVKMKIPILEKCTAEISGAAALSVLGFSAAIAGSYTMQAVLTSVIATGFIGLLFILNTMAIQHPFNACLGPNENQTRTLKLAASTGFISMAIAGLLGIGLNPGWWLVSLVGALCWVVAFKSFVSASFEEAASVKWSGLWPKEEEQ”, the protein production result is given as “failed”.

On to “MSVADSYFDELFRNNDDPWAFKQRWYERRKRALTLAALPRERYRAIFEPGCANGELSADLAERCDMLVCCDTSTQAVELARQRLADVPHARVVQARLPHQWPAGQFDLIVFSELGYYLDAADLHRLIDCALAALSPDGQLLACHWRPDIEGCPLNAQAVHAILAERLSMHRLFSHHEQDFLLDLWSRDGLEHHHHHH”, for which the protein production entry is “failed”.

On to “MSVAHENARRIISDILGKQNIERVWFVGCGGSLTGFWPGKYFLDCEASKLAVGYITSNEFVHATPKALGKNSVVILASQQGNTAETVAAARVAREKGAATIGLVYQPDTPLCEYSDYIIEYQWARYPETVDPAQQKAAYSLWLALEILAQTEGYAQYDELVSAFGRFSDVVHGAQRQVQEDAQRFAAEWKDEKVVYMMGSGPSFGAAHQESICILLEMQWINSASIHSGEYFHGPFEITEPGTPFILLQSSGRTRPLDDRAIRFIERYQGKLQLIDADKLGIQDLSTDVGEYFCGLLHNCVLDVYNLALATARNHPLTTRRYMWKVEY”, for which the protein production entry is “not failed”.

For the sequence “MSVASLPSFLCLSQESSRRASARRESPSSPRTWAGWIPVTGTGMRECVVALCLLLTLIFAAASPALAFNPDEVLKDPVLEQRARNLTSQLRCMVCQNQSIDDSNAELARDLRVLVRERLVQGDSDKAVIDYVVSRYGEFVLLKPRLSLRTLLLWGAPIGLTLAGIFAVFVFSRRRATQERPQKLSADEEERIRNLIEK”, the protein production entry was “failed”.

With “MSVDDSADVVVVGAGPAGSAAAAWAARAGRDVLVIDTATFPRDKPCGDGLTPRAVAELHQLGLGKWLADHIRHRGLRMSGFGGEVEVDWPGPSFPSYGSAVARLELDDRIRKVAEDTGARMLLGAKAVAVHHDSSRRVVSLTLADGTEVGCRQLIVADGARSPLGRKLGRRWHRETVYGVAVRGYLSTAYSDDPWLTSHLELRSPDGAVLPGYGWIFPLGNGEVNIGVGALSTSRRPADLALRPLISYYTDLRRDEWGFTGQPRAVSSALLPMGGAVSGVAGSNWMLIGDAAACVNPLNGEGIDYGLETGRLAAELLDSRDLARLWPSLLADRYGRGFSVARRLALLLTFPRFLPTTGPITMRSTALMNIAVRVMSNLVTDDDRDWVARVWRGGGQLSRLVDRRPPFS”, the protein production entry is “failed”.

In the case of “MSVDPKLIRQKIQRLDAGARPRVLDLFSGCGGISLGFQSAGFEIVAAVENDPDAARSHGLNFHHGEDRHSIPRNITVTSPAALATALGLGAAASAFDVIVGGPPCQAFARVGRSKLREIAEHPEAFRHDSRARLYIEYLAYVEACAPLAVVIENVPDMLNHGGHNLAAEIGEILASKDYVVRYTLLNAAFYGVPQMRERMILIAIRKELADDVEFPAPTHWIDLPSGYQGSRAVALKLATGRDLLTEATGGSAYKAAPEAVETLAPAVSTQQAIGDLPEIMARELLAEGALRRGTRRLDAMLPYGGHNQQNDYVKEMRTWPGFEGSSHVRDHVIRYLPRDYRIFAGLKPGDQYPEAHRYALSLFEAELERLHAQGKRPEDGSSEWDALKAAFVPPYDAGKFPNKWRKMEATTPARTLLAHLGKDGYSHIHYDSRQARPISVREAARLQSFPDGFRFAGTMNPAFRQIGNAVPPLLARAIAQTLRSQLVRGVATEDLPRVAGAGR”, the protein production result is given as “failed”.

Regarding “MSVEIKRVDKHHCLDLVEIFIELEQYYFGDKAASEQDLANYLSHQVFSEHSGVKVIAAVEHDKVLGFATYTIMFPAPKLSGQMYMKDLFVSSSAPGKGIGLQLMKHLATIAITYNCQRLDWTAESTNPTARKFYKSIGASLIREKEYYRFEGNGLNKLAKSL”, the protein production entry was “not failed”.

On to “MSVFTKTSVASAATTCLFVLLWSSGAIVSKLGLAHASPFAFLLLRSALALAGLLLIGPLLGLRWPRTRGSILRALGTGCVLLGAYQIFYLLALDTHVTPGVMATVMGVQPILTVVLMERQRSWSRLFGLGLGLGGLIMVVYQGINLGGVSLAGMLFALLALVSMTFGSILQKRITDNPMGTLPLQYLAGFAMCALFAPLQPLHVEWTGSFVGALLWMGLVVSLLATLLLYRLIAKGNLVNVTSLFYLVPAVTAVMDLLIFGNRLAPLSLLGMGLIVVGLLFVFRKPAARLAEA”, for which the protein production entry was “failed”.

“MSVGCARIRRALRHGTSPARQHDAAAASHRRAPVVRIRMDIDAALGEQYVDYRCSRCGMVAQAAVAGYGTGLVVNGVSLSNAQLEAEVGAARAARLAPCPRCGHRGRPALLGVLLVGATVGVVAAMAIGFTVAELFHRSDPEGRLAPVVGTATFVAVVATMTALKLRSVRRRVRFHRVML”: the protein production result was “failed”.

Regarding “MSVIHPLQNLLTSRDGSLVFAIIKNCILSFKYQSPNHWEFAGKWSDDFDKIQESRNTTAKEQQGQSSENENENKKLKSNKGDSIKRTAAKVPSPGLGAPPIYSYIRNLRLTSDESRLIACADSDKSLLVFDVDKTSKNVLKLRKRFCFSKRPNAISIAEDDTTVIIADKFGDVYSIDINSIPEEKFTQEPILGHVSMLTDVHLIKDSDGHQFIITSDRDEHIKISHYPQCFIVDKWLFGHKHFVSSICCGKDYLLLSAGGDDKIFAWDWKTGKNLSTFDYNSLIKPYLNDQHLAPPRFQNENNDIIEFAVSKIIKSKNLPFVAFFVEATKCIIILEMSEKQKGDLALKQIITFPYNVISLSAHNDEFQVTLDNKESSGVQKNFAKFIEYNLNENSFVVNNEKSNEFDSAIIQSVQGDSNLVTKKEEIYPLYNVSSLRKHGEHYS”, the protein production result is given as “failed”.

For “MSVIIAANNLCLQYQQNEPVIKHANLRIKRKDFVFISGPSGSGKSTLLRSFYGDLKLFSGKLEVCNINMNNASKATILDLRKNIGVVFQDYKLIQDYTIEQNIKLPMVICGIKKEECHLQLEKLLGHIDLRHKANRYPKELSGGEQQRVAMARAMANCPELILADEPTGNLDDYSSDKIWSLLRGMNTQLNATIVVVTHKFPKNFSAYHRKFYIEDGEVYEYS”, the protein production result is on record as “failed”.

For “MSVKRVLRNTIRKEKEENRVTEPLTETPELSAKYAWFFDLDGTLAEIKPHPDQVVVPDTILQGLQLLATASDGALALISGRSMVELDALAKPYRFPLAGVHGAERRDINGKTHIVHLPDAIARDISVQLHTVIAQYPGAELEAKGMAFALHYRQAPQHEDALMTLAQRITQIWPQMALQQGKCVVEIKPKGTSKGEAIAAFMQEAPFIGRTPVFLGDDLTDESGFAVVNRLGGMSVKIGTGATQASWRLAGVPDVWSWLEMITTALQQKRENNRSDDYESFSRSI”, the protein production result is recorded as “failed”.

Turning to “MSVKVSEYMTKKVVTVSKDNTVKDVIKLLKETGHNSFPVVENGKLIGIVSVHDIVGKDDNEKVENVMTKRKDMVVTTPDANIMDVGRIMFRTGFSKLPVVDEENNLVGIISNMDVIRSQIEKTTPKKLENIIKTYKSLGYNLRVEKEEVDVNKLRPTQNKIHADELVGRMYELKKGLAEPIIAIKTKRGDYYILVDGHHRAVAAYKMGVPKLDAYVIYLDTDKKLGIEKTAEIMNLKSLEDVKIVDSDDENSVKVIKYNKNGVLG”, the protein production result is listed as “failed”.

In the case of “MSVLDLPELALDCILDLLPPSGLCSMARVCSSLRERCVSDHLWEKHLKTKWGKILGPAAHREWQCYISSSTYHLDSPHHQTGNLGFAKIISLIRSLSSVFREDKQRRGYASSLPLDSSMSCYLSLETGRFWFPAQVYNRENGHVGFMLSCYDAELSYDTHTDTFQARYPPHGRRASAIEKGVTWDRIRAAPIDASPHLLHVSDSLKELKPGDHIEIQWRRNKEFPYGK”, the protein production result is “failed”.

As to “MSVMYKKILYPTDFSETAEIALKHVKAFKTLKAEEVILLHVIDEREIKKRDIFSLLLGVAGLNKSVEEFENELKNKLTEEAKNKMENIKKELEDVGFKVKDIIVVGIPHEEIVKIAEDEGVDIIIMGSHGKTNLKEILLGSVTENVIKKSNKPVLVVKRKNS”, the protein production entry was “not failed”.

Turning to “MSVTVFIPGDSAALAVGANRVAEAIAREAASRNLDVQIVRNGSRGMLWLEVLVEVRTEHGRIAYGPVKAADVTSLFDADFLDGGDHRLCLGPTKDIPFLKNQTRLTFARCGVTDPLSLEDYRNYQGMKGLEKAVTMEPLAIVAQVTESGLRGRGGAGFPTGIKWKTVADARADQKYIVCNADEGDSGTFADRMIMEGDPFVLIEGMAIAGLAVGATKGFIYTRSEYPYAIKVMEKAIEIARREGILGSSVLGSGRAFDMEVRMGAGAYVCGEETSLLNSLEGKRGTVRAKPPLPALQGLFGKPTVVNNVISLASIPVIMDRGAAFYRDFGVGRSHGTIPIQLAGNIRYGGLYETAFGLTLGQLVNDIGGGTITGRPVKAVQVGGPLGAYFPVSLFDTIFDYEAFTAAGGLIGHAGIVVFDDTADMLHQARFALEFCAVESCGKCTPCRIGSTRGVETVDKIALGIEREKNTALLEDLCETMKFGSLCALGGFTPYPVMSALRHFPQDFAPIPRVEAAELEHHHHHH”, the protein production entry is on record as “failed”.

In the case of “MSVTVRVPAKVNVQLAVGAARPDGFHDLANVFLAVSLYDEVTATPAADGLRVTCEGPDAGQVPLDRTNLAARAAEALAARYGRAPDVHLHIAKDIPVAGGMAGGSADGAGALLACDALWGTGASREELLEICAGLGSDVPFSLVGGAALGTGRGERLAELE”, the protein production entry is “failed”.

“MSWAAPDDIFFSTSLAAYLDKKLLVLLRDGRKLMGLLRSFDQFANAVLEEAYERVIVGDLYCDIPLGLYIIRGENVVLIGELDVEKEELPAHMVQVPEAEIKRAQKAEKEEMLLKGTMRKRMEFLDLD”: the protein production entry was “failed”.

On to “MSWTVDIPKEVLPDLPPLPEGMQQQFEDTISRDAKQQPTWDRAQAENVRKILESVPPIVVAPEVLELKQKLADVANGKAFLLQGGDCAETFESNTEPHIRANVKTLLQMAVVLTYGASTPVIKMARIAGQYAKPRSSDLDGNGLPNYRGDIVNGVEATPEARRHDPARMIRAYANASAAMNLVRALTSSGTADLYRLSEWNREFVANSPAGARYEALAREIDSGLRFMEACGVSDESLRAADIYCSHEALLVDYERSMLRLATDEEGNEELYDLSAHQLWIGERTRGMDDFHVNFASMISNPIGIKIGPGITPEEAVAYADKLDPNFEPGRLTIVARMGHDKVRSVLPGVIQAVEASGHKVIWQSDPMHGNTFTASNGYKTRHFDKVIDEVQGFFEVHRALGTHPGGIHIEFTGEDVTECLGGAEDITDVDLPGRYESACDPRLNTQQSLELAFLVAEMLRN”, for which the protein production result is “failed”.
